Results: patent WO2018095428A1 (dated 2018)

How the values were obtained:
[1] = target: natural CD47 on the surface of CCRF-CEM cells (UniProt Q08722); experiment: flow cytometry on CCRF-CEM cells, sample at 1 ug/ml, Alexa Fluor 488 goat anti-human (H+L); blank control 30.0
[2] = target: T1, human CD47-his (Sino Biological, CAT#12283-HCCH-50) (human, UniProt Q08722 19-139, limits assumed); experiment: SPR (Biacore): antibody captured with human Fab capture kit on CM5 chip, human CD47-his flowed over
T1 construct: Bought protein used as analyte in Biacore; also called 人CD47-his; human CD47-his antigen; not shown: His tag of the bought protein

[3] = target: human CD47-his (Sino Biological, CAT#12283-HCCH-50) (human) (UniProt Q08722); experiment: SPR (Biacore), KD compared with hu167-4
[4] = target: natural CD47 on the surface of CCRF-CEM cells (UniProt Q08722); experiment: flow cytometry on CCRF-CEM cells, antibody at 1 ug/ml, Alexa Fluor 488 goat anti-human (H+L); blank control 30.0

flow cytometry binding signal (流式结合信号) [1]	KD fold difference (against ch-055) [2]	Kd [2]	koff [2]	kon [2]	KD ratio against hu167-4 [3]	KD fold difference (against ch-167) [2]	flow cytometry binding signal (流式结合信号) [4]	Molecule
65.1	–	–	–	–	–	–	–	IgG4-Fc control
–	1	0.167 nM	0.000389 s⁻¹	2.32e+06 M⁻¹ s⁻¹	–	–	–	chimeric antibody ch-055 (antibody, V domains shown) VH: QVLLQQSGPELVQPGASVKISCKASGYSFTSSYLHWVKQRPGQGLDWIGWIYPESGNTKYNERFKGKATLTADTSSSTAYMQLSSLTSEDSAVYYCSRRGDVFFAYWGQGTTLTVSS VL: DIVMTQSPSYLTVTAGEKVTMSCKSSQSLLTSGKQKNYLTWYQQKPGQPPKLLIYWASTRESGVPERFRGSGSGTDFTLTISSVQAEDLAVYYCQNDYSYPLTFGAGTKLELN
–	–	–	–	–	1.3	–	–	hu167-31 (antibody, V domains shown) VH: QVQLVQSGAEVKKPGASVKVSCKASGYTFTSYWMHWVRQAPGQGLEWMGNIDPSDSETHYNQKFKDRVTMTRDTSISTAYMELSRLRSDDTAVYYCARWGYLGRSAMDYWGQGTTVTVSS VL: DVQMTQSPSSLSASVGDRVTITCRTSKSISKFLAWYQQKPGKAPKLLIYSGSTLQSGVPSRFSGSGSGTDFTLTISSLQPEDFATYYCQQHNEYPWTFGGGTKVEIK
–	–	–	–	–	1.2	–	–	hu167-32 (antibody, V domains shown) VH: QVQLVQSGAEVKKPGASVKVSCKASGYTFTSYWMHWVRQAPGQGLEWMGNIDPSDSETHYNQKFKDRVTMTRDTSISTAYMELSRLRSDDTAVYYCARWGYLGRSAMDYWGQGTTVTVSS VL: DIQITQSPSSLSASVGDRVTITCRTSKSISKFLAWYQQKPGKAPKLLIYSGSTLQSGVPSRFSGSGSGTDFTLTISSLQPEDFATYYCQQHNEYPWTFGGGTKVEIK
–	–	0.664 nM	0.000991 s⁻¹	1.49e+06 M⁻¹ s⁻¹	–	2.04	–	hu167-1 (antibody, V domains shown) VH: QVQLVQSGAEVKKPGASVKVSCKASGYTFTSYWMHWVRQAPGQGLEWMGNIDPSDSETHYNQKFKDRVTMTRDTSISTAYMELSRLRSDDTAVYYCARWGYLGRSAMDYWGQGTTVTVSS VL: DIQMTQSPSSLSASVGDRVTITCRTSKSISKFLAWYQQKPGKAPKLLIYSGSTLQSGVPSRFSGSGSGTDFTLTISSLQPEDFATYYCQQHNEYPWTFGGGTKVEIK
–	–	–	–	–	0.98	–	27800	hu167-33 (antibody, V domains shown) VH: QVQLVQSGAEVKKPGASVKVSCKASGYTFTSYWMHWVRQAPGQGLEWMGNIDPSDSETHYNQKFKDRVTMTRDTSISTAYMELSRLRSDDTAVYYCARWGYLGRSAMDYWGQGTTVTVSS VL: DVQITQSPSSLSASVGDRVTITCRTSKSISKFLAWYQQKPGKAPKLLIYSGSTLQSGVPSRFSGSGSGTDFTLTISSLQPEDFATYYCQQHNEYPWTFGGGTKVEIK
–	3.5	0.585 nM	0.000976 s⁻¹	1.67e+06 M⁻¹ s⁻¹	–	–	–	hu055-1 (antibody, V domains shown) VH: QVQLVQSGAEVKKPGASVKVSCKASGYTFTSSYLHWVRQAPGQRLEWMGWIYPESGNTKYNERFKGRVTITRDTSASTAYMELSSLRSEDTAVYYCARRGDVFFAYWGQGTTVTVSS VL: DIVMTQSPDSLAVSLGERATINCKSSQSLLTSGKQKNYLTWYQQKPGQPPKLLIYWASTRESGVPDRFSGSGSGTDFTLTISSLQAEDVAVYYCQNDYSYPLTFGQGTKLEIK
–	1.1	0.182 nM	0.000382 s⁻¹	2.1e+06 M⁻¹ s⁻¹	–	–	–	hu055-5 (antibody, V domains shown) VH: QVQLVQSGAEVKKPGASVKVSCKASGYTFTSSYLHWVRQAPGQRLDWIGWIYPESGNTKYNERFKGRATLTADTSASTAYMELSSLRSEDTAVYYCARRGDVFFAYWGQGTTVTVSS VL: DIVMTQSPDSLAVSLGERATINCKSSQSLLTSGKQKNYLTWYQQKPGQPPKLLIYWASTRESGVPDRFSGSGSGTDFTLTISSLQAEDVAVYYCQNDYSYPLTFGQGTKLEIKR
–	3.7	0.617 nM	0.000987 s⁻¹	1.6e+06 M⁻¹ s⁻¹	–	–	–	hu055-8 (antibody, V domains shown) VH: QVQLVQSGAEVKKPGASVKVSCKASGYTFTSSYLHWVRQAPGQRLEWMGWIYPESGNTKYNERFKGRVTITRDTSASTAYMELSSLRSEDTAVYYCARRGDVFFAYWGQGTTVTVSS VL: DIVMTQSPDSLAVSLGERATINCKSSQSLLTSGKQKNYLTWYQQKPGQPPKLLIYWASTRESGVPERFSGSGSGTDFTLTISSLQAEDVAVYYCQNDYSYPLTFGQGTKLEIK
–	–	0.325 nM	0.000558 s⁻¹	1.72e+06 M⁻¹ s⁻¹	–	1	–	chimeric antibody ch-167 (antibody, V domains shown) VH: QVQLQQPGAELVRPGSSVKLSCKASGYTFTSYWMHWVKQRPIQGLEWVGNIDPSDSETHYNQKFKDKATLTVDKSSSTAYMQLSSLTSEDSAVYYCARWGYLGRSAMDYWGQGTSVTVSS VL: DVQITQSPSYLAASPGETITINCRTSKSISKFLAWYQEKPGKTHKLLIYSGSTLQSGIPSRFSGSGSGTDFTLTISSLEPEDFAMYYCQQHNEYPWTFGGGTKLEIK
